IntAct's records for PubMed 19264842

B1: 1-phosphatidylinositol 4,5-bisphosphate phosphodiesterase gamma-1 (Homo sapiens), P19174 (parent)
chain: MAGAASPCANGCGPGAPSDAEVLHLCRSLEVGTVMTLFYSKKSQRPERKTFQVKLETRQITWSRGADKIEGAIDIREIKEIRPGKTSRDFDRYQEDPAFRPDQSHCFVILYGMEFRLKTLSLQATSEDEVNMWIKGLTWLMEDTLQAPTPLQIERWLRKQFYSVDRNREDRISAKDLKNMLSQVNYRVPNMRFLRERLTDLEQRSGDITYGQFAQLYRSLMYSAQKTMDLPFLEASTLRAGERPELCRVSLPEFQQFLLDYQGELWAVDRLQVQEFMLSFLRDPLREIEEPYFFLDEFVTFLFSKENSVWNSQLDAVCPDTMNNPLSHYWISSSHNTYLTGDQFSSESSLEAYARCLRMGCRCIELDCWDGPDGMPVIYHGHTLTTKIKFSDVLHTIKEHAFVASEYPVILSIEDHCSIAQQRNMAQYFKKVLGDTLLTKPVEISADGLPSPNQLKRKILIKHKKLAEGSAYEEVPTSMMYSENDISNSIKNGILYLEDPVNHEWYPHYFVLTSSKIYYSEETSSDQGNEDEEEPKEVSSSTELHSNEKWFHGKLGAGRDGRHIAERLLTEYCIETGAPDGSFLVRESETFVGDYTLSFWRNGKVQHCRIHSRQDAGTPKFFLTDNLVFDSLYDLITHYQQVPLRCNEFEMRLSEPVPQTNAHESKEWYHASLTRAQAEHMLMRVPRDGAFLVRKRNEPNSYAISFRAEGKIKHCRVQQEGQTVMLGNSEFDSLVDLISYYEKHPLYRKMKLRYPINEEALEKIGTAEPDYGALYEGRNPGFYVEANPMPTFKCAVKALFDYKAQREDELTFIKSAIIQNVEKQEGGWWRGDYGGKKQLWFPSNYVEEMVNPVALEPEREHLDENSPLGDLLRGVLDVPACQIAIRPEGKNNRLFVFSISMASVAHWSLDVAADSQEELQDWVKKIREVAQTADARLTEGKIMERRKKIALELSELVVYCRPVPFDEEKIGTERACYRDMSSFPETKAEKYVNKAKGKKFLQYNRLQLSRIYPKGQRLDSSNYDPLPMWICGSQLVALNFQTPDKPMQMNQALFMTGRHCGYVLQPSTMRDEAFDPFDKSSLRGLEPCAISIEVLGARHLPKNGRGIVCPFVEIEVAGAEYDSTKQKTEFVVDNGLNPVWPAKPFHFQISNPEFAFLRFVVYEEDMFSDQNFLAQATFPVKGLKTGYRAVPLKNNYSEDLELASLLIKIDIFPAKENGDLSPFSGTSLRERGSDASGQLFHGRAREGSFESRYQQPFEDFRISQEHLADHFDSRERRAPRRTRVNGDNRL

Variants of: B1
Settings: with rac1_human RAC1, P63000

| Variant | effect of a mutation on the interaction |
| --- | --- |
| P842L | disrupting interaction |
